Experimental data from PMC12051053.

Molecular target: H3K9ac nucleosome with 147 bp DNA

“G60A SIRT6 (from UniProt Q8N6T7 2-355) (enzyme)” was tested. Which Km for the nucleosome substrate in the Western blot-based deacylation assay did it give?
Its Km for the nucleosome substrate in the Western blot-based deacylation assay is 0.088 µM.
